Results taken from the DeepSol protein solubility set.

test: soluble on expression in E. coli; label from the status in PepcDB or PDB records

Sequence	soluble on expression in E. coli
MGSDKIHHHHHHMTTFTAKFIDQEWEVPVESGRYHMIVGEFCPYAQRPQIARQLLGLDKHISISFVDDVPSDIGLIFSQPEQVTGAKSLRDIYHLTDPTYQGPYTIPILIDKTDNRIVCKESADLLRLFTTDFSDLHQEDAPVLFSQETASLIDNDIKDINKNFQSLMYKLAFLDKQADYDTYSKEFFTFLDQKEHLLGQRPFLLGDNLSEVDIHFFTPLVRWDIAGRDLLLLNQKALEDYPNIFSWAKTLYNDFNLKTLTNPQSIKNNYYLGKFGRAVRHHTIVPTGPNMAKWEK	not soluble
MKSSEEQALAGIELDDDAVMQYLLQNPDFFIRNARLVEQMHIPHPVRGTVSLVEWQLGRQRNQIGQLEEEITLLMEQAGLNEVLFNRLLQLQGNLAAASSLQDMLNRLQRWARDFGLAGANVRLFTDRWQIGAPSDFTHLGLSRHAFEPMRIQRLGNARHYLGSLNGPELLLLLPQAKQVGSVALSLLGKEGDLGVIVFSSRDIQHYQQGMGTVMLNQLSMLLPSLLERWIEPVLEHHHHHH	not soluble
MESIGLVIVSHSKHIAEGVVELISKVAKDVPITYVRGTEGGGIGTSFEQVDRVVSENPADTLLAFFDLGSAKMNLKMVTDFSDKSIIINRVPIVEGAYNAAALLQAGAELSVIQTQLAELEINK	not soluble
MARSFKVLSPTAILGYGFPEESFRKAMAESPDLIAVDAGSSDPGPHYLGAGKPFTDRAGVKRDLRYMITAGVQNNIPVVIGTAGGSGAAPHLEWCREIIHEIAREEHLSFSMALIPADVDKAIVHQALDNGKITALDFVPPLTHDAIDESTYIVAQMGIEPFQRALKERAQVVLGGRAYDPACFAALPIMQGFDEGLALHCGKILECAAIAATPGSGSDCAMGIIDDNGFTLKTFNPKRKFTETSAAAHTLYEKSDPYFLPGPGGVLNLKGCTFKAVNDGEVYVSGSKHEETPYALKLEGARRVGFRCLTIAGTRDPIMIAGIDKIIDEVKTSVSRNLSLDDDSIRINFHLYGKNGVMGDHEPMQTAGHELGIVLDVVAPTQEIANSVCSLVRSTMLHYGYENRIATAGNLAFPFSPSDIQGGPVYEFSIYHLIEANDALRFDFHIEQVTPEGVQA	soluble
MAPLGTTVLLWSLLRSSPGVERVCFRARIQPWHGGLLQPLPCSFEMGLPRRRFSSEAESGSPETKKPTFMDEEVQSILTKMTGLNLQKTFKPAIQELKPPTYKLMTQAQLEEATRQAVEAAKVRLKMPPVLEERVPINDVLAEDKILEGTETTKYVFTDISYSIPHRCLEHHHHHHH	not soluble
MSLRFDFHTHTVFSDGELIPAELVRRARVLKHRAIAITDHADFSNYKELIEKTTIAKEELKKYWDDIIVIVGVELTHIPPKSIPKMAKKAKDLGAEIVVVHGETVVEPVEEKTNYYASISEDVDILAHPGFIDKETAENLKENDIFVEITSRRGHNITNGYVANIAREFGLKTLINTDTHAPEDLIDDEFAKKVGLGAGLTNKELENTLLHYPKELLKREGHHHHHH	soluble
QAGFNDLFTINNTPAKTATEIYLENFPEQRNPLKSTGVNIVFKAPEGHTLAEPENKAAMDSVVQAIQDNLEGLTNTQRFGNPVELNPKLQQGVIDLMTQRGVPEENARADAANLSLITPDETIGYTTFDIDVPMPADVSDAQRQAITDAMNLGREKGLTVEAGGAGFGDPIVIEETSE	not soluble
MGSDKIHHHHHHMTRTTLEAGVTRRDVLKVAGLTGLGAALYASGLERWLPRALTAEATNQVPFYGKYQAGILTPPQNHVQIVAFDVQTTRRDELIDLLKRWTRACARLTAGLPLGDSDSLYVPPEDTGEAEGLSASHLTFTFGCGHGLFADDRFEIGHKRPNLLRELPAFDLDQLDPKWAGGDLVVQICADDQQVVFHALRNLTRIGRGIVKIRWTQTGFQRSKAADATGGTPRNLFGFKDGTGNPDVSQPAIRNKHLFYQWQDGSPWMTNGSFLVVRRIQMHLEVWDRTILKEQERTFGRDRASGAPLGSKDEFASVTPSKRTARGEASLPKDSHTAVAHGSGEAQLLRRSYSYQAGINETTGALDAGLLFLSYQRSPEQFITIQRRLAASDRLNEYITHRGSALFACFGGIQKGGYIGDALFA	not soluble
MKKVAIVGLGWLGMPLAMSLSARGWQVTGSKTTQDGVEAARMSGIDSYLLRMEPELVCDSDDLDALMDADALVITLPARRSGPGDEFYLQAVQELVDSALAHRIPRIIFTSSTSVYGDAQGTVKETTPRNPVTNSGRVLEELEDWLHNLPGTSVDILRLAGLVGPGRHPGRFFAGKTAPDGEHGVNLVHLEDVIGAITLLLQAPKGGHIYNICAPAHPARNVFYPQMARLLGLEPPQFRNSLDSGKGKIIDGSRICNELGFEYQYPDPLVMPLELEHHHHHH	not soluble
MFGGDVSAASVLPSHPISGSCDGFQAEGSDHHHSTMTPFQESQRNVYQILYGHPANDDFPRPITPLQITIPEGDASPTVPVSCGVVNGKMHLNLFMCPGIHQPCIEVGNDLLSPKQFTIRGDKERQKDWKASIRVGRSSLRTHMEAMTIDFYEHMNRCSGKCQSRNYVNAPSEEVLQARKSKRTSEAGQLKYEIENEMAGKEADNDDNRKSAKKARGRPRGSVNKPRQMVKMEPQDDRFFEEFFIDAPPLQSMSSNEEPTSSNKESNECTPFNDILNCLQNDPMNFWSQMQQTGVIGHFCDDIIVSAINLKQSVMDNPVTPTTANMLTRTAFALGIPPVVVHRVQSIERNAYQQRKHDEMFNDIQSTLAEEHSVKYQPRTSSSSQESLHTAREFTEEKVEELIDVCKYDDYPESECLPGPSHIQ	not soluble
MAHHHHHHMEHVNANEKNGYLASEKNELTKNKVEEHTYDYDYVVIGGGPGGMASAKEAAAHGARVLLFDYVKPSSQGTKWGIGGTCVNVGCVPKKLMHYAGHMGSIFKLDSKAYGWKFDNLKHDWKKLVTTVQSHIRSLNFSYMTGLRSSKVKYINGLAKLKDKNTVSYYLKGDLSKEETVTGKYILIATGCRPHIPDDVEGAKELSITSDDIFSLKKDPGKTLVVGASYVALECSGFLNSLGYDVTVAVRSIVLRGFDQQCAVKVKLYMEEQGVMFKNGILPKKLTKMDDKILVEFSDKTSELYDTVLYAIGRKGDIDGLNLESLNMNVNKSNNKIIADHLSCTNIPSIFAVGDVAENVPELAPVAIKAGEILARRLFKDSDEIMDYSYIPTSIYTPIEYGACGYSEEKAYELYGKSNVEVFLQEFNNLEISAVHRQKHIRAQKDEYDLDVSSTCLAKLVCLKNEDNRVIGFHYVGPNAGEVTQGMALALRLKVKKKDFDNCIGIHPTDAESFMNLFVTISSGLSYAAKG	not soluble
MGHHHHHHSHIKKNNHHEENISSKMKGLNGKVSDLEKAAAQRKAKLDENSAFLQFNWKADVVESWIGEKENSLKTDDYGRDLSSVQTLLTKQETFDAGLQAFQQEGIANITALKDQLLAAKHVQSKAIEARHASLMKRWSQLLANSAARKKKLLEAQSHFRKVEDLFLTFAKKASAFNSWFENAEEDLTDPVRCNSLEEIKALREAHDAFRSSLSSAQADFNQLAELDRQIKSFRVASNPYT	not soluble
MGSDKIHHHHHHMKIIHVIASIDPKHGGLQAVAMRLAAAQAGLGLDVNIVSYGDAAIEAQVKEIGRSIPHFENIHWHLLPPAGRLETLFCFRGRRMLKALLKDASFMHIHGVWEPFLLYASKLARAAGVPYCICPAGMLDHWSLGQRSWKKKIALMLCYRRMLNEAAFLHLLNVDEMAAVETLNFQARNLIIPNGVFAEEFDPLPARGHFRQKIALAHGRRYILFLSRLHIKKGIDILASAFAAICETYVDVDLVVAGPPGGAEGHFMHLVKKLNIRHRVFMVGAIYGKAKLEAMVDADCFCLPSRQEGFSMAITEALACGTPVVITDQCHFPEVGSADAGLIVSVDAAEVAKALASMLGNPARARTMGENGRRLVLEKFTWPAIAHATLEGYRLSALEAAAS	not soluble
MSLKKIWLGILISVCTLLGADMSLWQKSTLNEIIKRGELRVGLEPGYLPFEMKDKKGNVIGFDVDLAREMAKAMGVKLKLVPTSWDGLIPGLVTEKFDIIISGMTISQERNLRVNFVEPYIVVGQSLLVKKGLEKGVKSYKDLDKPELTLVTKFGVSAEYAAKRLFKNAKLKTYDTEAEAVQEVLNGKADMFIFDLPFNVAFMAQKGQGYLVHLDTSLTYEPLGWAIKKGDPDFLNWLNHFLAQIKHDGSYDELYERWFVDTKWLEKIQEGHHHHHH	soluble
GSHMASMTGGQQMGRGSMNTEELQVAAFEIILNSGNARSIVHEAFDAMREKNYILAEQKLQEANDELLKAHQAQTDLLQEYASGTEIKIEIIMVHAQDHLMTTMTLREVAIEMLELYKKS	soluble
